Like-named read-outs stand apart in the source and are kept apart here.
Tests used:
C1s [1] = experiment: C1s activity inhibition
C1s [2] = experiment: C1s activity inhibition; remark: listed apart in the source

B1: rC1inh (other)
chain: NPNATSSSSQDPESLQDRGEGKVATTVISKMLFVEPILEVSSLPTTNSTTNSATKITANTTDEPTTQPTTEPTTQPTIQPTQPTTQLPTDSPTQPTTGSFCPGPVTLCSDLESHSTEAVLGDALVDFSLKLYHAFSAMKKVETNMAFSPFSIASLLTQVLLGAGENTKTNLESILSYPKDFTCVHQALKGFTTKGVTSVSQIFHSPDLAIRDTFVNASRTLYSSSPRVLSNNSDANLELINTWVAKNTNNKISRLLDSLPSDTRLVLLNAIYLSAKWKTTFDPKKTRMEPFHFKNSVIKVPMMNSKKYPVAHFIDQTLKAKVGQLQLSHNLSLVILVPQNLKHRLEDMEQALSPSVFKAIMEKLEMSKFQPTLLTLPRIKVTTSQDMLSIMEKLEFFDFSYDLNLCGLTEDPDLQVSAMQHQTVLELTETGVEAAAASAISVARTLLVFEVQQPFLFVLWDQQHKFPVFMGRVYDPRA
Work on B1 yielded an IC50 (C1s [1]) of 1.8 nM and an IC50 (C1s [2]) of 1.7 nM.
